Measured values: US12630600B2 (MEDIMMUNE LIMITED, priority 2022, dated 2026)
Starred links: 1 amine or outer side, 2 acyl side, 3 side chain; linkers in the order of their positions; H or OH if unused. Non-standard residues stand in square brackets, D forms with d. Groups on a side chain read outwards from the residue. No end group written: not given here. *: point of attachment. C18 diacid = O=C(O)CCCCCCCCCCCCCCCCC(=O)*; γGlu = O=C(O)[C@H](CCC(=O)[*:2])N[*:1]; αMeF = C[C@](N)(Cc1ccccc1)C(=O)O; AEEA = NCCOCCOCC(=O)O; Aib = CC(C)(N)C(=O)O

How the values were obtained:
[1] = target: human GLP-1 receptor (human, UniProt P43220); experiment: cell-based or functional assay
[2] = target: human glucagon receptor (human, UniProt P47871); experiment: cell-based or functional assay

Row | cAMP production EC50 [1] [nM] | cAMP production EC50 [2] [nM] | Binder
1 | 0.0686 | 2.75 | H[Aib]QGTFTSDVSK[αMeF]LDSK([AEEA-AEEA-γGlu-C18 diacid])RAEDFVQWLL[Aib]T-OH (N-terminus assumed; SMILES CC(C)C[C@H](NC(=O)[C@H](Cc1c[nH]c2ccccc12)NC(=O)[C@H](CCC(N)=O)NC(=O)[C@@H](NC(=O)[C@H](Cc1ccccc1)NC(=O)[C@H](CC(=O)O)NC(=O)[C@H](CCC(=O)O)NC(=O)[C@H](C)NC(=O)[C@H](CCCNC(=N)N)NC(=O)[C@H](CCCCNC(=O)COCCOCCNC(=O)COCCOCCNC(=O)CC[C@H](NC(=O)CCCCCCCCCCCCCCCCC(=O)O)C(=O)O)NC(=O)[C@H](CO)NC(=O)[C@H](CC(=O)O)NC(=O)[C@H](CC(C)C)NC(=O)[C@](C)(Cc1ccccc1)NC(=O)[C@H](CCCCN)NC(=O)[C@H](CO)NC(=O)[C@@H](NC(=O)[C@H](CC(=O)O)NC(=O)[C@H](CO)NC(=O)[C@@H](NC(=O)[C@H](Cc1ccccc1)NC(=O)[C@@H](NC(=O)CNC(=O)[C@H](CCC(N)=O)NC(=O)C(C)(C)NC(=O)[C@@H](N)Cc1c[nH]cn1)[C@@H](C)O)[C@@H](C)O)C(C)C)C(C)C)C(=O)N[C@@H](CC(C)C)C(=O)NC(C)(C)C(=O)N[C@H](C(=O)O)[C@@H](C)O) [Peptide 37]
2 | 0.0431 | 0.278 | H[Aib]QGTFTSDVSK[αMeF]LDSK([AEEA-AEEA-γGlu-C18 diacid])RARDFVQWLL[Aib]T-OH (N-terminus assumed; SMILES CC(C)C[C@H](NC(=O)[C@H](Cc1c[nH]c2ccccc12)NC(=O)[C@H](CCC(N)=O)NC(=O)[C@@H](NC(=O)[C@H](Cc1ccccc1)NC(=O)[C@H](CC(=O)O)NC(=O)[C@H](CCCNC(=N)N)NC(=O)[C@H](C)NC(=O)[C@H](CCCNC(=N)N)NC(=O)[C@H](CCCCNC(=O)COCCOCCNC(=O)COCCOCCNC(=O)CC[C@H](NC(=O)CCCCCCCCCCCCCCCCC(=O)O)C(=O)O)NC(=O)[C@H](CO)NC(=O)[C@H](CC(=O)O)NC(=O)[C@H](CC(C)C)NC(=O)[C@](C)(Cc1ccccc1)NC(=O)[C@H](CCCCN)NC(=O)[C@H](CO)NC(=O)[C@@H](NC(=O)[C@H](CC(=O)O)NC(=O)[C@H](CO)NC(=O)[C@@H](NC(=O)[C@H](Cc1ccccc1)NC(=O)[C@@H](NC(=O)CNC(=O)[C@H](CCC(N)=O)NC(=O)C(C)(C)NC(=O)[C@@H](N)Cc1c[nH]cn1)[C@@H](C)O)[C@@H](C)O)C(C)C)C(C)C)C(=O)N[C@@H](CC(C)C)C(=O)NC(C)(C)C(=O)N[C@H](C(=O)O)[C@@H](C)O) [Peptide 36]
3 | 0.0824 | 0.161 | H[Aib]QGTFTSDVSK[αMeF]LDSK([AEEA-AEEA-γGlu-C18 diacid])RAQDFVQWLL[Aib]E-OH (N-terminus assumed; SMILES CC(C)C[C@H](NC(=O)[C@H](Cc1c[nH]c2ccccc12)NC(=O)[C@H](CCC(N)=O)NC(=O)[C@@H](NC(=O)[C@H](Cc1ccccc1)NC(=O)[C@H](CC(=O)O)NC(=O)[C@H](CCC(N)=O)NC(=O)[C@H](C)NC(=O)[C@H](CCCNC(=N)N)NC(=O)[C@H](CCCCNC(=O)COCCOCCNC(=O)COCCOCCNC(=O)CC[C@H](NC(=O)CCCCCCCCCCCCCCCCC(=O)O)C(=O)O)NC(=O)[C@H](CO)NC(=O)[C@H](CC(=O)O)NC(=O)[C@H](CC(C)C)NC(=O)[C@](C)(Cc1ccccc1)NC(=O)[C@H](CCCCN)NC(=O)[C@H](CO)NC(=O)[C@@H](NC(=O)[C@H](CC(=O)O)NC(=O)[C@H](CO)NC(=O)[C@@H](NC(=O)[C@H](Cc1ccccc1)NC(=O)[C@@H](NC(=O)CNC(=O)[C@H](CCC(N)=O)NC(=O)C(C)(C)NC(=O)[C@@H](N)Cc1c[nH]cn1)[C@@H](C)O)[C@@H](C)O)C(C)C)C(C)C)C(=O)N[C@@H](CC(C)C)C(=O)NC(C)(C)C(=O)N[C@@H](CCC(=O)O)C(=O)O) [Peptide 34]
